Patent US20240279353A1 (KIROMIC BIOPHARMA, published 2024)

B1: anti-IsoMSLN monoclonal antibody clone 1B6 (antibody, V domains shown)
VH: EVKLVESGGGLVKPGGSLKLSCEASGFTFSRYAMSWVRHTPEKRLAWVASITFGGDPYYPDGLKGRFTISRDNTRNILYLQMNSLRSEDTAMYYCVRHESWFAYWGQGTLVTVSA
VL: DVLMTQTPLSLPVSLGEQVSISCRSSQTIVHTDGNIYLEWYLQNPGQSPRLLIYKISNRFSGVPDRFSGSGSGTDFTLKISRVEAEDLGIYYCFQASHVPYTFGGGTKLEIK
notes: also called IB6

Assays:
Experiment in all cases: EC50 binding assay (ELISA screening, format not stated)
[1] = target: Mesothelin Isoform 2 (IsoMSLN), as used in the EC50 binding assay (human) (UniProt Q13421)
[2] = target: Mesothelin Isoform 1, as used in the EC50 binding assay (human) (UniProt Q13421)
[3] = target: T1, Mesothelin Isoform 2 (IsoMSLN), as used in the EC50 binding assay (human, UniProt Q13421 37-598)
T1 construct: also called MSLN Isoform 2; mesothelin isoform-2 polypeptide
T1 sequence (Q13421 37-606 limits assumed, form in doubt): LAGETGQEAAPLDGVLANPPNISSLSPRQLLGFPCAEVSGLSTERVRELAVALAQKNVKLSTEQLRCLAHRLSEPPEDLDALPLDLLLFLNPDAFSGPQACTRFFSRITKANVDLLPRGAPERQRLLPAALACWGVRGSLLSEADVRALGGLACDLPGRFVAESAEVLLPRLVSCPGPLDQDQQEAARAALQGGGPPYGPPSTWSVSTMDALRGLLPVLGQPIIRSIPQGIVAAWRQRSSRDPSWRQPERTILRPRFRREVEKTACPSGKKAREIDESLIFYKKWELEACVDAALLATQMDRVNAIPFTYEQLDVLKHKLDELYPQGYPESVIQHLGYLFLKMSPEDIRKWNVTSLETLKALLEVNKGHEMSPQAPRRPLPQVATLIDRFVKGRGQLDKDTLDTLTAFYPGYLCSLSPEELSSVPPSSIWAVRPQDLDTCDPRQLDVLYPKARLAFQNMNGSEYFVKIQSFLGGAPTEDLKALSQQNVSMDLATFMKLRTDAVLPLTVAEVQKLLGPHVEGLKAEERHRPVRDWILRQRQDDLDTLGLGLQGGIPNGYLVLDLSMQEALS

Sequence of Mesothelin Isoform 2 (IsoMSLN), as used in the EC50 binding assay (human) (Q13421 37-606 limits assumed, form in doubt): as above
Sequence of Mesothelin Isoform 1, as used in the EC50 binding assay (human) (Q13421 other isoform, or with tags, fused parts or gaps limits assumed): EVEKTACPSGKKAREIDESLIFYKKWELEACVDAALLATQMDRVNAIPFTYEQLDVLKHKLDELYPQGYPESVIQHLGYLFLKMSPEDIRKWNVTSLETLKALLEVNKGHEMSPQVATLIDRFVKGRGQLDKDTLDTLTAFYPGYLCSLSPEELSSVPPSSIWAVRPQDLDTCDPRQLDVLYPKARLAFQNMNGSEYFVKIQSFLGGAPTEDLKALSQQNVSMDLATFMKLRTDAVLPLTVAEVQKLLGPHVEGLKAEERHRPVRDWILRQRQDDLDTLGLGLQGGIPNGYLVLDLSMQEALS

Row | Molecule | EC50 [1] | EC50 [2] | EC50 [3]
1 | anti-MSLN antibody clone K1 (commercially available) | 0.11 µg/mL | 0.15 µg/mL | 
2 | B1 |  |  | 0.073 µg/mL
